US20190359693A1

Tests used:
[1] = target: hemagglutinin (HA) of influenza A/New Caledonia/20/99 (H1N1) (influenza A virus A/New Caledonia/20/99 (H1N1)); assay: cell-based or functional assay
[2] = target: hemagglutinin (HA) of influenza B/Harbin/7/94 (Yamagata lineage) (influenza B virus B/Harbin/7/94); assay: cell-based or functional assay
[3] = target: hemagglutinin (HA) of influenza A/Vietnam/1194/04 (H5N1) (influenza A virus A/Vietnam/1194/04 (H5N1)); assay: cell-based or functional assay
[4] = target: hemagglutinin (HA) of influenza A/Brisbane/10/07 (H3N2) (influenza A virus A/Brisbane/10/07 (H3N2)); assay: cell-based or functional assay
[5] = target: hemagglutinin (HA) of influenza B/Brisbane/60/08 (Victoria lineage) (influenza B virus B/Brisbane/60/08); assay: cell-based or functional assay
[6] = target: hemagglutinin (HA) of influenza virus B/Florida/04/06 (Yamagata) (influenza B virus); assay: cell-based or functional assay
[7] = target: hemagglutinin (HA) of influenza virus H1N1 A/Mississippi/03/01 274H (influenza A virus); assay: cell-based or functional assay
[8] = target: hemagglutinin (HA) of influenza virus H3N2 A/Panama/2007/99 (influenza A virus); assay: cell-based or functional assay
[9] = target: hemagglutinin (HA) of influenza virus H3N2 A/Brisbane/10/07 (influenza A virus); assay: cell-based or functional assay
[10] = target: hemagglutinin (HA) of influenza virus H5N1 A/Vietnam/1194/04 (influenza A virus); assay: cell-based or functional assay
[11] = target: hemagglutinin (HA) of influenza virus B/Malaysia/2506/04 (Victoria) (influenza B virus); assay: cell-based or functional assay
[12] = target: hemagglutinin (HA) of influenza virus H1N1 A/Puerto Rico/8/34-MA (influenza A virus); assay: cell-based or functional assay
[13] = target: hemagglutinin (HA) of influenza virus H4 A/WF/HK/MPA892/06 (influenza A virus); assay: cell-based or functional assay
[14] = target: hemagglutinin (HA) of influenza virus H1N1 A/Solomon Islands/3/2006 (IVR 145) (influenza A virus); assay: cell-based or functional assay
[15] = target: hemagglutinin (HA) of influenza virus H10N7 A/Chick/Germany/N/49 (influenza A virus); assay: cell-based or functional assay
[16] = target: hemagglutinin (HA) of influenza virus H7N3 A/NIBRG/60 (A/mallard/Netherlands/12/00) (influenza A virus); assay: cell-based or functional assay
[17] = target: hemagglutinin (HA) of influenza virus H14N5 A/Mallard/Astrakhan/263/1982 (influenza A virus); assay: cell-based or functional assay
[18] = target: hemagglutinin (HA) of influenza virus H1N1 A/Christchurch/16/10 (influenza A virus); assay: cell-based or functional assay
[19] = target: hemagglutinin (HA) of influenza virus H3N2 A/Hiroshima/52/05 (influenza A virus); assay: cell-based or functional assay
[20] = target: hemagglutinin (HA) of influenza virus H7N9 A/Shanghai/2/13 (influenza A virus); assay: cell-based or functional assay
[21] = target: hemagglutinin (HA) of influenza virus H1N1 A/New Caledonia/20/99 (influenza A virus); assay: cell-based or functional assay
[22] = target: hemagglutinin (HA) of influenza virus H9N2 A/HK/466419/09 (influenza A virus); assay: cell-based or functional assay
[23] = target: hemagglutinin (HA) of influenza virus H8N4 A/Eurasian Wigeon/MPH571/08 (influenza A virus); assay: cell-based or functional assay
[24] = target: hemagglutinin (HA) of influenza virus H3N2 A/Aichi/2/68 (influenza A virus) (UniProt P03437); assay: cell-based or functional assay
[25] = target: hemagglutinin (HA) of influenza virus H11N9 A/Northern Pintail/MPC2085/07 (influenza A virus); assay: cell-based or functional assay
[26] = target: hemagglutinin (HA) of influenza virus H7N7 A/PR8 H7N7-NY (influenza A virus); assay: cell-based or functional assay
[27] = target: hemagglutinin (HA) of influenza virus H3N2 A/HK/1/68-MA (influenza A virus); assay: cell-based or functional assay
[28] = target: hemagglutinin (HA) of influenza virus B/Harbin/7/94 (Yamagata) (influenza B virus); assay: cell-based or functional assay
[29] = target: hemagglutinin (HA) of influenza virus H1N1 A/WSN/33 (influenza A virus) (UniProt P03454); assay: cell-based or functional assay
[30] = target: hemagglutinin (HA) of influenza virus H2N2 A/Guiyang/1/57 (influenza A virus); assay: cell-based or functional assay
[31] = target: hemagglutinin (HA) of influenza virus H3N2 A/Victoria/210/09 (influenza A virus); assay: cell-based or functional assay
[32] = target: hemagglutinin (HA) of influenza virus H3N2 A/Perth/16/09 (influenza A virus); assay: cell-based or functional assay
[33] = target: hemagglutinin (HA) of influenza virus B/Massachusetts/02/12 (Yamagata) (influenza B virus); assay: cell-based or functional assay
[34] = target: hemagglutinin (HA) of influenza virus H3N2 A/Fukui/45/04 (influenza A virus); assay: cell-based or functional assay
[35] = target: hemagglutinin (HA) of influenza virus H3N2 A/Wisconsin/67/05 (influenza A virus); assay: cell-based or functional assay
[36] = target: hemagglutinin (HA) of influenza virus H1N1 A/Brisbane/59/07 (influenza A virus); assay: cell-based or functional assay
[37] = target: hemagglutinin (HA) of influenza virus H5N1 A/PR8 H5N1 HK97 (influenza A virus); assay: cell-based or functional assay
[38] = target: hemagglutinin (HA) of influenza virus B/Lee/40 (Old) (influenza B virus) (UniProt P03460); assay: cell-based or functional assay
[39] = target: hemagglutinin (HA) of influenza virus B/Brisbane/60/08 (Victoria) (influenza B virus); assay: cell-based or functional assay
[40] = target: hemagglutinin (HA) of influenza virus H7N9 A/Anhui/1/13 (influenza A virus); assay: cell-based or functional assay
[41] = target: hemagglutinin (HA) of influenza virus H1N1 A/California/07/09 (influenza A virus); assay: cell-based or functional assay
[42] = target: hemagglutinin (HA) of influenza virus H3N2 A/Johannesburg/33/94 (influenza A virus); assay: cell-based or functional assay
[43] = target: hemagglutinin (HA) of influenza virus H6N1 A/Eurasian Wigeon/MPG1884/09 (influenza A virus); assay: cell-based or functional assay
[44] = target: hemagglutinin (HA) of influenza virus H2N2 A/WF/HK/MPU3156/05 (influenza A virus); assay: cell-based or functional assay
[45] = target: HA of H1N1 A/Brisbane/59/07 (influenza A virus); assay: cell-based or functional assay
[46] = target: HA of B/Florida/04/2006 (Yamagata) (influenza B virus); assay: cell-based or functional assay
[47] = target: HA of H5N1 A/Vietnam/1194/04 (influenza A virus); assay: cell-based or functional assay
[48] = target: HA of H3N2 A/Brisbane/10/2007 (influenza A virus); assay: cell-based or functional assay
[49] = target: HA of H1N1 A/New Caledonia/20/1999 (influenza A virus); assay: cell-based or functional assay
[50] = target: HA of H7N3 A/NIBRG/60 (A/mallard/NL/12/00) (influenza A virus); assay: cell-based or functional assay
[51] = target: HA of B/Brisbane/60/2008 (Victoria) (influenza B virus); assay: cell-based or functional assay
[52] = target: HA of H3N2 A/Brisbane/10/2007 (influenza A virus); assay: BLI steady state
[53] = target: HA of H7N3 A/NIBRG/60 (A/mallard/NL/12/00) (influenza A virus); assay: BLI steady state
[54] = target: HA of H1N1 A/Puerto Rico/8/34-MA (influenza A virus); assay: cell-based or functional assay
[55] = target: HA of H3N2 A/HK/1/68-MA (influenza A virus); assay: cell-based or functional assay
[56] = target: HA of B/Harbin/7/94 (Yamagata) (influenza B virus); assay: cell-based or functional assay
[57] = target: HA of B/Malaysia/2506/04 (Victoria) (influenza B virus); assay: cell-based or functional assay
[58] = target: HA of B/Lee/40 (influenza B virus) (UniProt P03460); assay: cell-based or functional assay

With TIFGIRVNTMG (Fc fusion) [FM1W3] the Average neutralization titers [1] was 6 nM, the Average neutralization titers [2] was 8 nM and the Average neutralization titers [3] was 10 nM. For the same binder, the Average neutralization titers [4] was 16 nM and the Average neutralization titers [5] was 16 nM.

B1: MD2501 (bispecific antibody)
chain: EVQLVESGGGLVQPGGSLRLSCAVSISIFDIYAMDWYRQAPGKQRDLVATSFRDGSTNYADSVKGRFTISRDNAKNTLYLQMNSLKPEDTAVYLCHVSLYRDPLGVAGGMGVYWGKGALVTVSSGGGGSGGGGSEVQLVESGGGLVQPGGSLRLSCAVSISIFDIYAMDWYRQAPGKQRDLVATSFRDGSTNYADSVKGRFTISRDNAKNTLYLQMNSLKPEDTAVYLCHVSLYRDPLGVAGGMGVYWGKGALVTVSSGGGGSGGGGSEVQLVESGGGLVQAGGSLKLSCAASGRTYAMGWFRQAPGKEREFVAHINALGTRTYYSDSVKGRFTISRDNAKNTEYLEMNNLKPEDTAVYYCTAQGQWRAAPVAVAAEYEFWGQGTQVTVSSGGGGSGGGGSEVQLVESGGGLVQPGGSLRLSCAATGFTLENKAIGWFRQTPGSEREGVLCISKSGSWTYYTDSMRGRFTISRDNAENTVYLQMDSLKPEDTAVYYCATTTAGGGLCWDGTTFSRLASSWGQGTQVTVSSGGGGSGGGGSEVQLVESGGGLVQPGGSLKLSCAASGFTFSTSWMYWLRQAPGKGLEWVSVINTDGGTYYADSVKDRFTISRDNAKDTLYLQMSSLKSEDTAVYYCAKDWGGPEPTRGQGTQVTVSS
Work on B1 yielded an average neutralization titer [6] of 8.3 nM, an average neutralization titer [7] of 4.9 nM and an average neutralization titer [8] of 18.1 nM. The average neutralization titer [9] was 9.6 nM, the average neutralization titer [10] was 6.5 nM and the average neutralization titer [11] was 8.8 nM. For the same binder, the average neutralization titer [12] was 8.5 nM, the average neutralization titer [13] was 3.9 nM and the average neutralization titer [14] was 3.9 nM. For the same binder, the average neutralization titer [15] was 14.9 nM, the average neutralization titer [16] was 13.8 nM and the average neutralization titer [17] was 15.6 nM. The average neutralization titer [18] was 1.3 nM, the average neutralization titer [19] was 6.5 nM and the average neutralization titer [20] was 36.5 nM. For the same binder, the average neutralization titer [21] was 4.8 nM, the average neutralization titer [22] was 16 nM and the average neutralization titer [23] was 16 nM. For the same binder, the average neutralization titer [24] was 12.6 nM, the average neutralization titer [25] was 16 nM and the average neutralization titer [26] was 14 nM. It also gave an average neutralization titer [27] of 19 nM, an average neutralization titer [28] of 4.3 nM and an average neutralization titer [29] of 2.9 nM. It also gave an average neutralization titer [30] of 19.9 nM, an average neutralization titer [31] of 5.8 nM and an average neutralization titer [32] of 5.7 nM. It also gave an average neutralization titer [33] of 4 nM, an average neutralization titer [34] of 21.2 nM and an average neutralization titer [35] of 14.1 nM. The average neutralization titer [36] was 3 nM, the average neutralization titer [37] was 4.9 nM and the average neutralization titer [38] was 14.6 nM. The average neutralization titer [39] was 5 nM, the average neutralization titer [40] was 73.8 nM and the average neutralization titer [41] was 3 nM. The average neutralization titer [42] was 11.6 nM and the average neutralization titer [43] was 16 nM.

B2: MD2312 (bispecific antibody)
chain: EVQLVESGGGLVQAGDSLRLSCAASGPTFGMSAMGWFRQAPGKEREFVAAISGLGNPNYSDDVKGRFTISRENGRNTVYLQMNSLKPEDTAVYYCAQRKVYHVQGGDRPQAYDYWGQGTQVTVSSGGGGSGGGGSEVQLVESGGGLVQAGDSLRISCAASGRTLSIYSMGWFRQAPGKEREFVATIGWNSGRTFYPDSLKGRFTISRDNARNTLYLQMNNLRPEDTAVYYCAAAKGPLRLSSQADYWGQGTQVTVSSGGGGSGGGGSEVQLVESGGGLVQPGGSLRLSCAATGFTLENKAIGWFRQTPGSEREGVLCISKSGSWTYYTDSMRGRFTISRDNAENTVYLQMDSLKPEDTAVYYCATTTAGGGLCWDGTTFSRLASSWGQGTQVTVSS
B2 was tested, and the average neutralization titer [9] was 18.1 nM, the average neutralization titer [10] was 5.8 nM and the average neutralization titer [16] was 7.7 nM. For the same binder, the average neutralization titer [44] was 21.6 nM, the average neutralization titer [30] was under 1000 nM and the average neutralization titer [40] was 43.2 nM.

B3: SD1048 (VHH)
VHH: EVQLVESGGGVVQPGGSLRLSCVASGRTSSMYSIGWFRQAPGKEREFVAVIGWYSGRTFYTDSMKGRFTISRDNARNTVYLQMNSLKPEDTAVYYCAAANGPLRLSNQADYWGQGTQVTVSS
For B3, the VNA titer [45] was over 1000 nM, the VNA titer [46] was over 1000 nM and the VNA titer [47] was over 1000 nM. It also gave a VNA titer [48] of 19.5 nM, a VNA titer [49] of over 1000 nM and a VNA titer [50] of 20.6 nM. For the same binder, the VNA titer [51] was over 1000 nM, the Kd [52] was 3 nM and the Kd [53] was 3 nM.

B4: SD1025 (VHH)
VHH: EVQLVESGGGLVQAGGSLRLSCAASGRTYAMAWFRQAPGKEREFVAHINALGTRTYYSDSVQGRFTISRDNAKNTEYLQMNSLKPEDTAVYYCAAGGQWRAAPVADAAQYDFWGQGTQVTVSS
With B4 the VNA titer [45] was over 1000 nM, the VNA titer [54] was over 1000 nM and the VNA titer [47] was over 1000 nM. For the same binder, the VNA titer [48] was over 1000 nM, the VNA titer [49] was over 1000 nM and the VNA titer [50] was 52 nM. For the same binder, the VNA titer [55] was over 1000 nM.

B5: SD2086 (VHH)
VHH: EVQLVESGGGLVQAGGSLRLSCATSGQTFSSYAMGWFRQAPGKEREFVAAISWNGGSTYYADSVKGRFTISRESPENLVYLQMNSLKPEDTAVYYCAARGAYYTGSYYLGSTYDYWGQGTQVTVSS
Work on B5 yielded a VNA titer [46] of 815 nM, a VNA titer [56] of 964 nM and a VNA titer [57] of 546 nM. It also gave a VNA titer [58] of 273 nM and a VNA titer [51] of 934 nM.
